The record followed here is the nanobody polyreactivity screen of Harvey et al. (2022).

The data set is described as follows: yeast display, Sf9 membrane polyspecificity reagent, FACS + sequencing; frameworks hold sequencing errors. The method, boiled down: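 Genes from sorted yeast were amplified by colony PCR, read by MiSeq 2 × 250 sequencing and filtered on CDR length. These cells carried a synthetic nanobody library in Saccharomyces cerevisiae BJ5465 and were sorted by FACS into low and high (top ~1%) gates on anti-HA and streptavidin fluorescence. Polyreactivity is labelled according to the gate of origin.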
As to “PVQLQQSGSGLVQAGGSLRLSCAASGYISLGDNKGWYRQAPGKEREFDATISVGGITYYVDSVKGPFTISRDIAKNTVYLQMNSVKPEDTAVYYCAALDIYYLRYYYWGQGTQVTLSS”, the “polyreactivity (PSR sort gate)” value is reported as “low polyreactivity”. In the case of “PVQLVESGGGLGQAGGSLRLSCAASGIIFNDYAMGWYRQAPGKERELVASIRSNTGSTNYADSVKGRFTISRDYAKNTVYLPMNSLKPEETAVSDCAADYLPDYGPRGGYWGQGTQVTVSS”, the “polyreactivity (PSR sort gate)” value is reported as “low polyreactivity”. The entry for “PVQLVESGGGLGQAGGSLRLSCAASGLTFGRYAMGWYRQAPGKERELVAAITRSGGRTYYADSVKGRFTISRDNAKNTVYLQMNSLKPEDTAVYYCNTRSHLGAPGDPDDYWGQGTQVTVTS” is “high polyreactivity”; for “PVQLVESGGGLGQAGGSLRLSCAASGRIFYLYAMGWYRQAPGKERELVATIDSSGDSTFYADSVKGRFTISRDNAKNTVYLQMNSLKPEDTAVYNCAADEVSSYDYGYKGRYDYWGQGTQVTVSS” it is “low polyreactivity”. The entry for “PVQLVESGGGLVQAGGSLRLSCAASGRTFGYNAMGWYRQAPGKERELVASISYRGGSTYYADSVKGRFTISRDNAKNTVYLQMNSLKPEDTAVYYCNKYYVWREYYWGQGTQVNVSS” is “high polyreactivity”; for “PVQLVESGGGLVQAGGSLRLSCAASGRTFYKYAMGWYRQAPGKERELVAAISKSGGRTYYADSVKGRFTISRDNAKNTVYLQMNSLKPEDTAVYYCAAEPFIPDQSRYYYWGQGTQVTVSS” it is “high polyreactivity”; for “PVQLVESGGGLVQAGGSLRLSCAASGRTVWNTMGWDRQSPGNERELVAAISYSGGTTYYADSVKGRFTISRDNAKNTVYLQMNSLKPEDTAVYYCNAVTYGWTAYYKGKRYDYWGQGTQVTVSS” it is “high polyreactivity”. The entry for “PVQLVESGGGLVQAGGSLRLSCAASGSTFDAYDLGWYRQAPGKERELVAAINWSGGITYYADSVKGRFTISRDNAKNTVYLQMNSLKPEDTAVYYCNADASFYSRVNYWGQGTQVTVSS” is “high polyreactivity”; for “PVQLVESGGGLVQAGGSLRLSCAASGSTSSYYAMGWYRQAPGKERELVAAIRTSGRTYYADSVKGRFTISRDNAKNTVYLQMNSLQPEDTAVYYCNAGYVSPDYDSWGQGTHVTVSS” it is “high polyreactivity”. Take “PVQLVESGGGLVQAGGSLSLTCAASGSIFPYYTMRWYRPAPGKERELVATITGNGGSTYADSGKGRFTISRDNAKNTVYLQMNSLKPEDTAVYYCAVYGDSYWGAYYYSDGYWGQGTQVTVSS”: the “polyreactivity (PSR sort gate)” value is “low polyreactivity”.

For the sequence “PVQLVESRGRLVQAGGSLRLSCAASGSIFGYNAMGWYRQAPGKERELVAAISYSGASTYYSDSVKGRFTISRDNAKNTVYLQLNSLKPEDTAVYYCAAGWKRFSGRNHYYWGLGTQVTVSS”, the “polyreactivity (PSR sort gate)” value is “high polyreactivity”. Take “PVQLVESWGGLDQAGGSLRLICAPSGSIFSVYAMGWYRQAPGKERELVAAISWSGGSTYYADSVKGRFTISRDNAKNTVYLQLNSLKPEDTAVYYCNAKHLPRHRDYWGQGTQVTVSS”: the “polyreactivity (PSR sort gate)” value is recorded as “low polyreactivity”. As to “QAQLQESGGSLVQAGGGLRLSCAASGYISVGSVMGWYRQAPSKERELGASIDQGANTNYADSVKGRFTISRDNAKNNVYLQMNSLKPEDTAVYYCATETTYILNYWGQGTQVTVSS”, the “polyreactivity (PSR sort gate)” value is “low polyreactivity”.

For the sequence “QAQLQESGGSLVQAGGGLRLSCAASGYISVGSVMGWYRQAPSKERELVASIDQGANTNYADSVNGRFTISRDNAKNKESLQMNSLKPEDTAVYYCATETTYIVIYWGQGTQVTVSS”, the “polyreactivity (PSR sort gate)” value is “low polyreactivity”. As to “QDHIVESGGGLVQAGGSLRLSCAASGSTFKLYAMGWYRQAPGKERELVAAITRSGTRTYYADSVKGRFTISRDNAKNTVYLQMNILKPEDTAVYYCAADGYRISGYDYWGQGTQVTVSS”, the “polyreactivity (PSR sort gate)” value is listed as “high polyreactivity”.

Turning to “QDHLVESGGGLDQAGGSLRLSCAASGRILGDYAMGWYRQAPGKEREFVAAIDYNGGSTNYADSVKGRFTISRDNAKNTVYLQMNSLKPEDTAVYYCAAPGFPSRNGFGYWGQGTQVTVSS”, the “polyreactivity (PSR sort gate)” value is on record as “low polyreactivity”. “QDHLVESGGGLVQAGGSLRLSCAASGGIFYGYAMGWYRQAPGKERELVAAISTSDASTYYADSVKGRFTFSRDNAKNTVFVQMNSLKPEATAVYYCATDLPDGYDYWGQGTQVTVSS”: the “polyreactivity (PSR sort gate)” value was “low polyreactivity”. The entry for “QDHLVESGGGLVQAGGSLRLSCAASGISFWFNAMGWYRQAPGKEREWVGAITSGVDTNYADSVKGRFTISRDNAKNTVYLQMNSLKPEDTAVNYSAAQGGRLKRGSTTSDYWGQGTQVTVSS” is “low polyreactivity”; for “QDHLVESGGGLVQAGGSLRLSCSASGRTFGTYAMGWYRQAPGKERELVATISSGGSTYYADSVKGRFTISRDNAKNTGYLQMNSLKPEDTAVYYCADYRYFRPGDYWGQGTQVTVSS” it is “low polyreactivity”. The entry for “QDLLVDSGGGLLQAGGSLRLSCAASGSIFYTNTMGWYRHAPGKERALVAAISYSDSTTYYADSVKGRFTISRDNAKNSVYLQMNSLKPEDTAVYYCAAQQFYTYYQTYDYWGQGTQVTVSS” is “high polyreactivity”; for “QDQHGDSGGGLVQAGGSLRLSCSASGFTITYNTMGWYRQAPGKERELVATITAGDGSTYYADSVKGRFTISRDNAKNTVYFQMNSLKPEDTAVYYCAADAYYYYAGGHYYWGQGTQVTVSS” it is “low polyreactivity”; for “QDQHVESEVGLVQAGGSLRLSCAASGSTVYPYAKGWYRKAPGKERELDAAISSGGSTYYADSVKGRFTISRDNAKNTVYLQMNSLKPEDTAVYYCAADFYYAYYWGQGSQVTVSS” it is “low polyreactivity”. The same measure for “QDQHVESGGCLVQAGGSRRLSCAASGSILGAYTMGCYRQAQGKERELVAAITRRGGSTYYADSVKGRFTISRDNAKNTVYLQMNSLKPEDTAVYYWNAEYGVWYDYLVVPYDYWGQGTQVTVSS”: “low polyreactivity”. With “QDQHVESGGGLVQAGASLRLSCSASGRIFRRYAMGWYRQAPGKERELVAAISWSGGTTYYADSVKGRFTISRDNAKNTVYLQINSLKPEDTAVYYCAKLYSSVTTTYPYGLPRYDSWGQGTQVTLSS”, the “polyreactivity (PSR sort gate)” value is “high polyreactivity”. For the sequence “QDQHVESGGGLVQAGGSLRISSAASGSIYFYNAMGWYRQAPGQERELVAAITTRGGSTYYADSVKGRFTISRDNAKNTVYLQMNSLKPEDTAVYYCARSSRGKLDYWGQGTQVTVSS”, the “polyreactivity (PSR sort gate)” value is given as “low polyreactivity”. Turning to “QDQHVESGGGLVQAGGSLRLSCAASGFTIRNYAMGWYRQAPGKVMELVPAISKRGGNTYYADSVKGRFSISRDNAKNNVYLQLNSLKPEDTAVYFCAADYQFSQDVWHFGYCGQGTQVTVSS”, the “polyreactivity (PSR sort gate)” value is reported as “high polyreactivity”. On to “QDQHVESGGGLVQAGGSLRLSCAASGGTFVPYAMGWYRQAPGKERELVARISKRGGTTYYADSVKGRFTISRDIAKNTVYLQMNSLKPEDTAVYYCAAGLPARGYYWGQGTQVTVSS”, for which the “polyreactivity (PSR sort gate)” value was “high polyreactivity”. The entry for “QDQHVESGGGLVQAGGSLRLSCAASGLIFNNYAMGWYRQAPGKERELVAPISRTGTSTYYADSVKGRFTISRDNAKNTVYLQMNSLKPEDTAVFYCNAVIQLFEWGWDDEYDYWGQGTQVTVSS” is “low polyreactivity”; for “QDQHVESGGGLVQAGGSLRLSCAASGSIFGYYARGWYRQAPGTETELVAAISKSGTRTYYADSVKGRFTISRDNAKNTVYVQMNSLKPEETAVYYCAARYYSRTTAMDYWGQGTQVTVSS” it is “high polyreactivity”; for “QDQHVESGGGLVQAGGSLRLSCAASGSTFAFYAMGWYRQAPGKERELVAAINYGGTSTYYADSVKGRFTISRDNAKNTVYLQMNSLKPEDTAVYYCAARRPTSPRRYESWGQGTQVTVSS” it is “high polyreactivity”. Turning to “QDQHVESGGGLVQAGGSLRLSCAASGSTLLYYVMGWYRQAPGKERELVAAITGTGGRTYYADSVKGRFTISRDNAKNTVYLQMNSLKPEDTAVYYCAREWRTRIYYYWGQGTQVTVSS”, the “polyreactivity (PSR sort gate)” value is reported as “low polyreactivity”.

“QDQHVESGGGLVQAGGSLRLSCAASGTIFCYYAMGWYRQAPGKERGLVASISWNGTSTYYADSVKGRFTISRDNSKNTVYLQMNCLNPEDTAVYYCNVRFNYRGTYDYWGQGTQVTVSS”: the “polyreactivity (PSR sort gate)” value was “low polyreactivity”.

Turning to “QDQHVESGGGLVQAGGSLRLSCAASGTTFSLYMGWNRQSPGKERKLVAAITYSGGRTYYADSVKGRFTISRDNAKNTVYLQMNSLKPEDTAVYYCGTVFNDLTVYEYWSRFDYWGQGTQVTVSS”, the “polyreactivity (PSR sort gate)” value is on record as “low polyreactivity”. Take “QDQHVESGGGLVQAGGSLRLSCDASGRTFTRYAMGWYRQAPGKERELVAAISRGGSTYYADSVKRRFTISRDNAKNTVYLQMNSLKPEDTAVYYCAARYGTYTAGNYWGQGTQVTVSS”: the “polyreactivity (PSR sort gate)” value is given as “high polyreactivity”. The same measure for “QDQHVESGGGLVQAGGSLRLSFADSGITFDYYAMGWYRQAPGKERELVAAISVSGGDTYYADSVKGRFTISRDNAKNTVYLQMNRLKPQDTSVYYCAAEEVSPRWYDYWGQGTQVTVSS”: “low polyreactivity”; for “QDQHVESGRGLVQAGGSLRLSCSASGTIFAYVMGWNIQAPRKERQLVAAISRSGGSTYYADSVKGRFTISRDNAKNTVYLQMNSLKPEDTAVFYCAAVGSTVFGTRYYYWGEGTQVTVSS”: “high polyreactivity”; for “QDQHVESVGGLVQAGGSLRFSCAASGSTFTRYAMGWYRQAPGKERELVAAIDGGGGSTSYADSVKGRFTISRDNAKNTVYLQMNSLKPEDTAVYYCAAPLDTSSSIFDYWGQGTQVTVSS”: “low polyreactivity”. The entry for “QDQIVESGGGLVQAGGSLRLSCASSGFTFYVYAMGWYRQAPCKERELVAAISWSGGRTYYAESVKGRFTISRDNAKNTVYLQMNSLKPEDTAVYYCAAYRYYPSYDYWGQGTQVTVSS” is “high polyreactivity”; for “QDQIVYSGGGLVQAGGSLRLSCAASVRTFYRYDLGWYIQAPGKESELVAAISYSGASTYYADSVKGRFTISRDIAKNTVYLQMNSLKPEDTAVYYCAARYHGRDPRQIRYGYWGQGTQVTVSS” it is “high polyreactivity”. The same measure for “QDQLEESGGGIVQAGGSLRLSCAASGSTFQYYAMGWYRQAPGKERELFAAISASVDTKFYADSVKGRFTISRDNAKNTVYLQMNSLKPEDTAFYYCATDWPHWRKVYWFDYWGQGTQVTVSS”: “low polyreactivity”.

Turning to “QDQLEESGGGLVQAGASLRLSCAAYGSIFSGYAMGRYRQATGKERELVAAITWRAASTYYADSVKGRFTISRDNAKTTVYLQMNSLKPEDTEVYYCAKEGWPKPAFYYWGLGTQVTVSS”, the “polyreactivity (PSR sort gate)” value is “low polyreactivity”.
